Measurements from patent US20190064149A1, “CANCER EXAMINATION METHOD AND EXAMINATION KIT” (THE UNIVERSITY OF TOKYO, priority 2013, published 2019).
Entries after “also recorded” stand apart in the source; their conditions may differ.

Columns and labels:
Type in all cases: cell-based, human
[1] = tested on: A431 cells; experiment: Cell growth assay, three-dimensional collagen gel culture and spheroid formation; details: three-dimensional culture in collagen gel and anchorage-independent spheroid formation
Method: Collagen I gel (3 mg/ml, Nitta Gelatin) extracted in acetic acid, a neutralization buffer (50 mM NaOH, 260 mM NaHCO3, 200 mM HEPES), and each of the two types of cells were mixed and the resulting mixture was seeded to satisfy 2.5×10^4/250 μl/48 well plate. After completion of the polymerization of the collagen gel, they were cultured for 7 days in 400 μl/well of a DMEM/1% FCS culture solution. After culturing, the collagen gel was dissolved with 0.1% collagenase. The cells were treated with trypsin to dissociate them into single cells and the number of the cells was counted using a Coulter counter.
The two types of the cells were each detached with trypsin from one another and the number of the cells was counted by a hemocytometer. They were seeded in a low adhesion plate (PrimeSurface (registered trademark), Sumitomo Bakelite) of each cell protein (100 cells/100 μl/96 well plate) and cultured for 7 days in a DMEM/1% FCS culture solution. The number of spheroid formation cells was obtained from their volume (½×long diameter×(short diameter)^2).

[2] = tested on: RhoG; experiment: RhoG activity pull-down with ELMO2/GST beads in MT1-MMP knockdown A431 cells; details: MT1-MMP knockdown A431 cells after EGF stimulation
Excerpt: By using A431 cells whose MT1-MMP expression was knocked down by siRNA, an influence of Ephrin-A1-dependent EphA2 on an RhoG signaling downstream of the EGF receptor was studied.
A fusion protein of ELMO2 and GST, each serving as an effector of RhoG, was solid phased on glutathione beads and the RhoG activity in a cell suspension solubilized with RIPA was detected by pull-down using ELMO2/GST beads as a bait. Co-precipitated RhoG was detected using an anti-RhoG polyclonal antibody (Santa Cruz) and the RhoG activity was quantified by densitometry with Image J. An expression vector of ELMO2 was kindly given by Chihiro Sasakawa, professor of Division of Bacterial Infection, Medical Institute of Science, The University of Tokyo.

[3] = tested on: A431 cells; experiment: Migration activity of EGF-stimulated cells in a transwell chamber; details: EGF-stimulated MT1-MMP knockdown cells
Excerpt: No RhoG activity was detected from the cells not treated with EGF (A). […] Similar results were found in the SCC61 cells (C).

B1: Ephrin-A1: typical ligand of EphA2 (protein)
chain: DRHTVFWNSSNPKFRNEDYTIHVQLNDYVDIICPHYEDHSVADAAMEQYILYLVEHEEYQLCQPQSKDQVRWQCNRPSAKHGPEKLSEKFQRFTPFTLGKEFKEGHSYYYISKPIHQHEDRCLRLKVTVSGKITHSPQAHDNPQEKRLAADDPEVRVLHSIGHS
growth of MT1-MMP knockdown cells [1]: significantly suppressed | RhoG activity [2]: significant decrease; also recorded: significantly reduced | cell migration [3]: significantly suppressed
